From patent US20210238296A1 (Genmab, published 2021)

What was measured:
[1] = target: T1, diFCGR2AR-HisBAP (dimeric extracellular domain of FcγRIIA allotype 131R) (Homo sapiens (Human), UniProt P12318 36-215, C-terminally biotinylated); experiment: ELISA, captured antibody 20 ug/mL, dimeric biotinylated FcγR ECD
T1 construct: dimeric, His-tagged, C-terminally biotinylated ECD; also called IIA-131R
T1 chain: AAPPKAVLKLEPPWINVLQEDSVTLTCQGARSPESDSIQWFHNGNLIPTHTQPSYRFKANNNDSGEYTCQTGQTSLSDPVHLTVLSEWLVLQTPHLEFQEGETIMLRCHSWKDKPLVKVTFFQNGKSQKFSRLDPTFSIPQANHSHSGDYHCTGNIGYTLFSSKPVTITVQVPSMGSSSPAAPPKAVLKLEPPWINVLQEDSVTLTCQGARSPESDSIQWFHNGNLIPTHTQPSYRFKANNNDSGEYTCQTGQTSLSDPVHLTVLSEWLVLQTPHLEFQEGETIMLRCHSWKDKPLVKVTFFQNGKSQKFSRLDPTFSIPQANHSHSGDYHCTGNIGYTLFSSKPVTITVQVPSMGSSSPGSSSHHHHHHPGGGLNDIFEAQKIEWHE

[2] = target: T2, diFCGR2B-HisBAP (dimeric extracellular domain of FcγRIIB) (Homo sapiens (Human), UniProt P31994 44-223, C-terminally biotinylated); experiment: as above
T2 construct: dimeric, His-tagged, C-terminally biotinylated ECD
T2 sequence: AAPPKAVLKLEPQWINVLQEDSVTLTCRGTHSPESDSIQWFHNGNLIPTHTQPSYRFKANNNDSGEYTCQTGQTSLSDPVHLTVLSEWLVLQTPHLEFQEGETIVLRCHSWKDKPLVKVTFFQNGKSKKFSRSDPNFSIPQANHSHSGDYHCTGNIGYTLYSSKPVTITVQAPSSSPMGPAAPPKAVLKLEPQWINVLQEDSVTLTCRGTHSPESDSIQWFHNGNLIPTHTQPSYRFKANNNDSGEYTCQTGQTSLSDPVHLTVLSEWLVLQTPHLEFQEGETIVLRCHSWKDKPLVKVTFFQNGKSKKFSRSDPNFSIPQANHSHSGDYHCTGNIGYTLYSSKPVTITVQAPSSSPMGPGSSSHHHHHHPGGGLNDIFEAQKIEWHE

[3] = target: T3, diFCGR2AH-HisBAP (dimeric extracellular domain of FcγRIIA allotype 131H) (Homo sapiens (Human), UniProt P12318 34-215, C-terminally biotinylated); experiment: as above
T3 construct: dimeric, His-tagged, C-terminally biotinylated ECD; also called IIA-131H
T3 sequence: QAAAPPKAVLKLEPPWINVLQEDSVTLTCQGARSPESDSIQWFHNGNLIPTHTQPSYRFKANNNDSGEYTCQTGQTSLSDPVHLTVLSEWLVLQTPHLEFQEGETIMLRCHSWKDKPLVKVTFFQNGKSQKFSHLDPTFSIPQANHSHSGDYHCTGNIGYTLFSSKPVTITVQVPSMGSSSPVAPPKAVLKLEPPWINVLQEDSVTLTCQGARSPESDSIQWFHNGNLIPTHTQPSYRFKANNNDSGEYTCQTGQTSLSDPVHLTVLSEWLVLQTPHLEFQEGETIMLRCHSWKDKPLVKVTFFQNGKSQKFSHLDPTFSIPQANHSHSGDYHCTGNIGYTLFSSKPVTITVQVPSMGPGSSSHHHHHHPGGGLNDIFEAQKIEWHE

C1q = target: T4, C1q (human, UniProt P02745 23-245; P02746 28-253; P02747 29-245); experiment: flow cytometry of C1q on antibody-opsonized Wien 133 cells, 20% NHS on ice
T4 construct: native C1q in 20% normal human serum, detected with rabbit anti-human C1q-FITC on antibody-opsonized Wien 133 cells; also called human C1q from normal human serum

[4] = target: T1, diFCGR2AR-HisBAP (dimeric extracellular …); experiment: ELISA, captured antibody, dimeric biotinylated FcγR ECD
[5] = target: T5, diFCGR3AF-HisBAP (dimeric extracellular domain of FcγRIIIA allotype 158F) (C-terminally biotinylated); experiment: as above
T5 construct: dimeric, His-tagged, C-terminally biotinylated ECD; also called IIIA-158F

[6] = target: T2, diFCGR2B-HisBAP (dimeric extracellular …); experiment: as above
[7] = target: T6, diFCGR3AV-HisBAP (dimeric extracellular domain of FcγRIIIA allotype 158V) (C-terminally biotinylated); experiment: as above
T6 construct: dimeric, His-tagged, C-terminally biotinylated ECD; also called IIIA-158V

[8] = target: T3, diFCGR2AH-HisBAP (dimeric extracellular …); experiment: as above
[9] = target: FCGR1AECDHis (monomeric extracellular domain of FcγRIA) (Homo sapiens (Human), UniProt P12314 16-292); experiment: ELISA, coated FCGR1AECD-His, 20 ug/mL antibody
[10] = target: T1, diFCGR2AR-HisBAP (dimeric extracellular …); experiment: FcγR ELISA, 20 ug/mL antibody
[11] = target: T2, diFCGR2B-HisBAP (dimeric extracellular …); experiment: FcγR ELISA, 20 ug/mL antibody
[12] = target: T3, diFCGR2AH-HisBAP (dimeric extracellular …); experiment: FcγR ELISA, 20 ug/mL antibody

FCGR1AECDHis (monomeric extracellular domain of FcγRIA), sequence (P12314 other isoform, or with tags, fused parts or gaps limits assumed): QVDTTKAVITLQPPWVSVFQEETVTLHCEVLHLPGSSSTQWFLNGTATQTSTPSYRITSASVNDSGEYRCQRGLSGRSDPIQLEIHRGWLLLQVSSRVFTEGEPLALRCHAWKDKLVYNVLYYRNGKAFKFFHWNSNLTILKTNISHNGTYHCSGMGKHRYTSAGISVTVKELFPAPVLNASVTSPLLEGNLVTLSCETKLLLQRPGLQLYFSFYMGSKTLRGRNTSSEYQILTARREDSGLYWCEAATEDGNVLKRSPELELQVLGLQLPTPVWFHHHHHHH
T4 sequence (P02745 23-245 limits assumed, chain 1 of 3): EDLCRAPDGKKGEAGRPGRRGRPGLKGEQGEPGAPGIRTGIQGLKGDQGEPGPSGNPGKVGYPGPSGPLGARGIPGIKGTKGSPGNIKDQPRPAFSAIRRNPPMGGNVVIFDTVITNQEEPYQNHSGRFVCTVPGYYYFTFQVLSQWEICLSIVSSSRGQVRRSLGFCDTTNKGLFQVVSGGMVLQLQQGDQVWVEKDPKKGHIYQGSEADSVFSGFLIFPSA
T4 sequence (P02746 28-253 limits assumed, chain 2 of 3): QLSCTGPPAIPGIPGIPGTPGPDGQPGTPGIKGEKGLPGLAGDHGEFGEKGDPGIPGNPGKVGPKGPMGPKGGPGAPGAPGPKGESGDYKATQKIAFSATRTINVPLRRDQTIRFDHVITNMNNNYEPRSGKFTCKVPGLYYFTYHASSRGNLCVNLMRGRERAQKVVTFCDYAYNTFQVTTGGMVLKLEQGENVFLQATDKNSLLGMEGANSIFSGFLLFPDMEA
T4 sequence (P02747 29-245 limits assumed, chain 3 of 3): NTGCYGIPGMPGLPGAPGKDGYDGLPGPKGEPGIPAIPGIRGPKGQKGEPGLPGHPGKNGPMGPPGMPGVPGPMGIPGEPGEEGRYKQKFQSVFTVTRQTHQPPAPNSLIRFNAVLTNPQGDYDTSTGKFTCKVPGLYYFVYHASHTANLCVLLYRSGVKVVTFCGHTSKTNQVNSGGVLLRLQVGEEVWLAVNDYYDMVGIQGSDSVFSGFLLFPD

binding result [4]	binding result [5]	binding result [6]	binding result [7]	binding result [8]	binding result [9]	also measured	Binder
–	–	–	–	–	–	binding result [1]: binds; binding result [2]: binds; binding result [3]: binds; binding result (C1q): binds	IgG1-11B8-E430G-S440K-K326A (antibody, also called IgG1-11B8-K326A-E430G-S440K) heavy: EVQLVQSGGGLVHPGGSLRLSCTGSGFTFSYHAMHWVRQAPGKGLEWVSIIGTGGVTYYADSVKGRFTISRDNVKNSLYLQMNSLRAEDMAVYYCARDYYGAGSFYDGLYGMDVWGQGTTVTVSSASTKGPSVFPLAPSSKSTSGGTAALGCLVKDYFPEPVTVSWNSGALTSGVHTFPAVLQSSGLYSLSSVVTVPSSSLGTQTYICNVNHKPSNTKVDKRVEPKSCDKTHTCPPCPAPELLGGPSVFLFPPKPKDTLMISRTPEVTCVVVDVSHEDPEVKFNWYVDGVEVHNAKTKPREEQYNSTYRVVSVLTVLHQDWLNGKEYKCKVSNAALPAPIEKTISKAKGQPREPQVYTLPPSREEMTKNQVSLTCLVKGFYPSDIAVEWESNGQPENNYKTTPPVLDSDGSFFLYSKLTVDKSRWQQGNVFSCSVMHGALHNHYTQKKLSLSPGK light: not shown
no binding (tested: 20 µg/mL)	no binding (tested: 20 µg/mL)	no binding (tested: 20 µg/mL)	no binding (tested: 20 µg/mL)	no binding (tested: 20 µg/mL)	binds	–	IgG1-CAMPATH-1H-E430G-K439E-G236R (antibody, also called IgG1-CAMPATH-1H-G236R-E430G-K439E; IgG1-CAMPATH-E430G-K439E-G236R) heavy: QVQLQESGPGLVRPSQTLSLTCTVSGFTFTDFYMNWVRQPPGRGLEWIGFIRDKAKGYTTEYNPSVKGRVTMLVDTSKNQFSLRLSSVTAADTAVYYCAREGHTAAPFDYWGQGSLVTVSSASTKGPSVFPLAPSSKSTSGGTAALGCLVKDYFPEPVTVSWNSGALTSGVHTFPAVLQSSGLYSLSSVVTVPSSSLGTQTYICNVNHKPSNTKVDKRVEPKSCDKTHTCPPCPAPELLRGPSVFLFPPKPKDTLMISRTPEVTCVVVDVSHEDPEVKFNWYVDGVEVHNAKTKPREEQYNSTYRVVSVLTVLHQDWLNGKEYKCKVSNKALPAPIEKTISKAKGQPREPQVYTLPPSREEMTKNQVSLTCLVKGFYPSDIAVEWESNGQPENNYKTTPPVLDSDGSFFLYSKLTVDKSRWQQGNVFSCSVMHGALHNHYTQESLSLSPGK light: not shown
no binding (tested: 20 µg/mL)	no binding (tested: 20 µg/mL)	no binding (tested: 20 µg/mL)	no binding (tested: 20 µg/mL)	no binding (tested: 20 µg/mL)	binds	–	IgG1-CAMPATH-1H-E430G-K439E-G237T (antibody, also called IgG1-CD52-Campath-G237T-E430G-K439E) heavy: QVQLQESGPGLVRPSQTLSLTCTVSGFTFTDFYMNWVRQPPGRGLEWIGFIRDKAKGYTTEYNPSVKGRVTMLVDTSKNQFSLRLSSVTAADTAVYYCAREGHTAAPFDYWGQGSLVTVSSASTKGPSVFPLAPSSKSTSGGTAALGCLVKDYFPEPVTVSWNSGALTSGVHTFPAVLQSSGLYSLSSVVTVPSSSLGTQTYICNVNHKPSNTKVDKRVEPKSCDKTHTCPPCPAPELLGTPSVFLFPPKPKDTLMISRTPEVTCVVVDVSHEDPEVKFNWYVDGVEVHNAKTKPREEQYNSTYRVVSVLTVLHQDWLNGKEYKCKVSNKALPAPIEKTISKAKGQPREPQVYTLPPSREEMTKNQVSLTCLVKGFYPSDIAVEWESNGQPENNYKTTPPVLDSDGSFFLYSKLTVDKSRWQQGNVFSCSVMHGALHNHYTQESLSLSPGK light: not shown
–	–	–	–	–	binds	–	IgG1-CAMPATH-1H-E430G-K439E-G237Q (antibody, also called IgG1-CD52-Campath-G237Q-E430G-K439E) heavy: QVQLQESGPGLVRPSQTLSLTCTVSGFTFTDFYMNWVRQPPGRGLEWIGFIRDKAKGYTTEYNPSVKGRVTMLVDTSKNQFSLRLSSVTAADTAVYYCAREGHTAAPFDYWGQGSLVTVSSASTKGPSVFPLAPSSKSTSGGTAALGCLVKDYFPEPVTVSWNSGALTSGVHTFPAVLQSSGLYSLSSVVTVPSSSLGTQTYICNVNHKPSNTKVDKRVEPKSCDKTHTCPPCPAPELLGQPSVFLFPPKPKDTLMISRTPEVTCVVVDVSHEDPEVKFNWYVDGVEVHNAKTKPREEQYNSTYRVVSVLTVLHQDWLNGKEYKCKVSNKALPAPIEKTISKAKGQPREPQVYTLPPSREEMTKNQVSLTCLVKGFYPSDIAVEWESNGQPENNYKTTPPVLDSDGSFFLYSKLTVDKSRWQQGNVFSCSVMHGALHNHYTQESLSLSPGK light: not shown
–	–	–	–	–	binds	binding result [10]: binds; binding result [11]: binds; binding result [12]: binds	IgG1-CAMPATH-1H-E430G-K439E-K322A (antibody, also called IgG1-CAMPATH-1H-K322A-E430G-K439E) heavy: QVQLQESGPGLVRPSQTLSLTCTVSGFTFTDFYMNWVRQPPGRGLEWIGFIRDKAKGYTTEYNPSVKGRVTMLVDTSKNQFSLRLSSVTAADTAVYYCAREGHTAAPFDYWGQGSLVTVSSASTKGPSVFPLAPSSKSTSGGTAALGCLVKDYFPEPVTVSWNSGALTSGVHTFPAVLQSSGLYSLSSVVTVPSSSLGTQTYICNVNHKPSNTKVDKRVEPKSCDKTHTCPPCPAPELLGGPSVFLFPPKPKDTLMISRTPEVTCVVVDVSHEDPEVKFNWYVDGVEVHNAKTKPREEQYNSTYRVVSVLTVLHQDWLNGKEYKCAVSNKALPAPIEKTISKAKGQPREPQVYTLPPSREEMTKNQVSLTCLVKGFYPSDIAVEWESNGQPENNYKTTPPVLDSDGSFFLYSKLTVDKSRWQQGNVFSCSVMHGALHNHYTQESLSLSPGK light: not shown
–	–	–	–	–	binds	–	IgG1-CAMPATH-1H-E430G-K439E-G237R (antibody, also called IgG1-CD52-Campath-G237R-E430G-K439E) heavy: QVQLQESGPGLVRPSQTLSLTCTVSGFTFTDFYMNWVRQPPGRGLEWIGFIRDKAKGYTTEYNPSVKGRVTMLVDTSKNQFSLRLSSVTAADTAVYYCAREGHTAAPFDYWGQGSLVTVSSASTKGPSVFPLAPSSKSTSGGTAALGCLVKDYFPEPVTVSWNSGALTSGVHTFPAVLQSSGLYSLSSVVTVPSSSLGTQTYICNVNHKPSNTKVDKRVEPKSCDKTHTCPPCPAPELLGRPSVFLFPPKPKDTLMISRTPEVTCVVVDVSHEDPEVKFNWYVDGVEVHNAKTKPREEQYNSTYRVVSVLTVLHQDWLNGKEYKCKVSNKALPAPIEKTISKAKGQPREPQVYTLPPSREEMTKNQVSLTCLVKGFYPSDIAVEWESNGQPENNYKTTPPVLDSDGSFFLYSKLTVDKSRWQQGNVFSCSVMHGALHNHYTQESLSLSPGK light: not shown
